Test results reported in paper PMC4430316, “Differential Phosphorylation of RNA Polymerase III and the Initiation Factor TFIIIB in Saccharomyces cerevisiae” (PLoS ONE, 2015).
Values belong to the binder of their own block, whether it stands above or below them.

Target: T1, Rpc160-HA (S. cerevisiae, UniProt P04051 1-1460)
T1 construct: Rpc160 (C160), largest subunit of RNA polymerase III, S. cerevisiae; Precipitated from cell extract, so other pol III subunits are probably present with it; also called C160-3HA; largest subunit of pol III; not shown: 3HA, C-terminal, kept
T1 sequence (looked up): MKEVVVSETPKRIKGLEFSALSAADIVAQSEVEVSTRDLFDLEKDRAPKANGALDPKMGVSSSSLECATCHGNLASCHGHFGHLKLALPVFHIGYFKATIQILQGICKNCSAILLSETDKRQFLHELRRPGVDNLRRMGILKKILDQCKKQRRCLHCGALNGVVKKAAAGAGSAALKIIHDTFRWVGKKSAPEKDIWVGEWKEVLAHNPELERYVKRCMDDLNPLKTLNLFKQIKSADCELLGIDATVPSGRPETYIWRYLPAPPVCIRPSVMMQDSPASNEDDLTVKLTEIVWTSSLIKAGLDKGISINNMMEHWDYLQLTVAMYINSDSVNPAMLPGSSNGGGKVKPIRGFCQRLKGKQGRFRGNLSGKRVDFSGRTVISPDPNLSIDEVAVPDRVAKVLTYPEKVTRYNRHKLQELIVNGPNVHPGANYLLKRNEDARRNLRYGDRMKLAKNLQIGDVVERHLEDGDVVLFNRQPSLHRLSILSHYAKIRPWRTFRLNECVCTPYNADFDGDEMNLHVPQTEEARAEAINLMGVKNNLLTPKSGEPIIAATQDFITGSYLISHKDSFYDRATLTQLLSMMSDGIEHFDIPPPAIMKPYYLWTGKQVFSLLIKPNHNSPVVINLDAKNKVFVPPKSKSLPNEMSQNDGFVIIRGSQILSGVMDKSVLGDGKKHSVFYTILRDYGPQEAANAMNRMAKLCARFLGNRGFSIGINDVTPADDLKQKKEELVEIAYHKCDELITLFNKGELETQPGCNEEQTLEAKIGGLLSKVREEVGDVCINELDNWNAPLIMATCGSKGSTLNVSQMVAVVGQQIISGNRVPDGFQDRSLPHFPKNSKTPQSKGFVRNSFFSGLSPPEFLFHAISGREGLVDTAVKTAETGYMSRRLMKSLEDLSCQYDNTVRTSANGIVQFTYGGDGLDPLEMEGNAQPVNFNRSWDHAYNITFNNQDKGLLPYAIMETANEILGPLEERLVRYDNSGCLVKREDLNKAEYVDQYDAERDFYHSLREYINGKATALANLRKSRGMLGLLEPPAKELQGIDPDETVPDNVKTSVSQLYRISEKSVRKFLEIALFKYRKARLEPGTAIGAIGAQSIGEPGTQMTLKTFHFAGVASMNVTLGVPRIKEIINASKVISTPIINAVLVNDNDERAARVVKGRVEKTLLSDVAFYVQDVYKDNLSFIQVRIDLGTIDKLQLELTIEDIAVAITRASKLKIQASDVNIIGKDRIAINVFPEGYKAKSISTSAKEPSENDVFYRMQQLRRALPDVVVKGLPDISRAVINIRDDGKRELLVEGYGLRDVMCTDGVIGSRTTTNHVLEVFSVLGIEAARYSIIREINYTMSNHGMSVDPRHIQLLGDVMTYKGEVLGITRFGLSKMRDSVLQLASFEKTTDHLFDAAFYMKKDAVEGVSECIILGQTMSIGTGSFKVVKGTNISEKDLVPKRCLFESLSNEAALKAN
Experiment: co-IP; Rpc160-HA precipitated with HA monoclonal antibody 12CA5 and protein G-Sepharose from yeast extracts (glass bead breakage, KBC100 buffer with protease and phosphatase inhibitors); Maf1 detected with polyclonal Maf1 antibody, Maf1myc with anti-myc; cells treated with rapamycin or untreated; also in BDP1 wild-type and BDP1-4SA strains (S4 Fig)
Settings: partners not purified

- fold increase of Maf1 co-immunoprecipitated with Rpc160 in rapamycin-treated against untreated cells: ~13 fold
B1: Maf1 (natural protein, S. cerevisiae, UniProt P41910 1-395, looked up)
chain: MKFIDELDIERVNQTLNFETNDCKIVGSCDIFTTKAVASDRKLYKTIDQHLDTILQENENYNATLQQQLAAPETNQSPCSSPFYSNRRDSNSFWEQKRRISFSEYNSNNNTNNSNGNSSNNNNYSGPNGSSPATFPKSAKLNDQNLKELVSNYDSGSMSSSSLDSSSKNDERIRRRSSSSISSFKSGKSSNNNYSSGTATNNVNKRRKSSINERPSNLSLGPFGPINEPSSRKIFAYLIAILNASYPDHDFSSVEPTDFVKTSLKTFISKFENTLYSLGRQPEEWVWEVINSHMTLSDCVLFQYSPSNSFLEDEPGYLWNLIGFLYNRKRKRVAYLYLICSRLNSSTGEVEDALAKKPQGKLIIDDGSNEYEGEYDFTYDENVIDDKSDQEESLQ
notes: Maf1, repressor of RNA polymerase III transcription, S. cerevisiae; untagged, detected with a polyclonal Maf1 antibody; Phosphorylation state differs between control and rapamycin-treated cells; also called untagged Maf1; source: endogenous, yeast cell extract

- fold increase of Maf1myc co-immunoprecipitated with Rpc160 in rapamycin-treated against untreated cells: < 2 fold
B2: Maf1myc (natural protein, S. cerevisiae, UniProt P41910 1-395, looked up)
chain: B1 chain
notes: Maf1, repressor of RNA polymerase III transcription, S. cerevisiae; also called Maf1-9myc; C-terminal myc-tagged Maf1
